Source: patent publication US11471494B2, “Microorganisms programmed to produce immune modulators and anti-cancer therapeutics in tumor cells” (Synlogic Operating Company, Inc., priority 2017, dated 2022)

Tests used:
[1] = target: T1, mCD40 (Mus musculus, UniProt P27512); assay: CD40 ELISA binding assay of supernatants; conditions: clarified supernatant
T1 sequence (P27512 20-289): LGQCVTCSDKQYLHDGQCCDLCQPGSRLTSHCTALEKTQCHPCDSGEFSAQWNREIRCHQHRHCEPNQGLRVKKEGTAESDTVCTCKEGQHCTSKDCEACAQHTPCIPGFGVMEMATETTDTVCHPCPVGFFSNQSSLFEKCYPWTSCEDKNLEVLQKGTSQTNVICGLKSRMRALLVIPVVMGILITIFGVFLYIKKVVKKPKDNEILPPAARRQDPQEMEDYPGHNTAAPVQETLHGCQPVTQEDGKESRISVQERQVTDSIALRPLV

[2] = tested on: anti-mCD40L antibody; assay: CD40 ELISA binding assay of supernatants, detection by antibody; conditions: clarified supernatant
[3] = CD40 ELISA binding assay, control coatings; conditions: clarified supernatant
[4] = target: T2, mPD1 (Mus musculus, UniProt Q02242); assay: ELISA binding assay of bacterial extracts (J43-scFv); conditions: α-V5-HRP
T2 construct: purchased Rndsystems
T2 sequence (Q02242 25-288): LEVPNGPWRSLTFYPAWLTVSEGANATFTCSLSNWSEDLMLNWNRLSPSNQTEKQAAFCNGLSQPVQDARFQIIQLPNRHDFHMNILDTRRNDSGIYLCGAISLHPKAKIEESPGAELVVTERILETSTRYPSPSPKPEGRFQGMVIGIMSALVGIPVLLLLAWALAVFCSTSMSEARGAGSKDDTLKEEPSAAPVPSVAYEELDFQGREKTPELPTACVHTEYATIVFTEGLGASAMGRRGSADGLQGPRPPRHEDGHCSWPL
Procedure: (§1) E. coli comprising either tet-inducible J43-Anti-PD1-scFv-V5 or wild type controls were grown overnight in LB medium. […] Same amount of tetracycline was added to wild type control cultures.
(§2) To determine whether the single-chain antibody purified from E. coli DH5α functionally binds to the target protein, PD1, an ELISA assay was performed.

[5] = target: T3, PD1 on mouse EL4 cells (Mus musculus, UniProt Q02242); assay: Flow cytometry, binding of anti-PD1-scFv to EL4 cells; assay type: cell-based
T3 construct: EL4 are a mouse lymphoma cell line which expresses PD1 on its cell surface; endogenous in cells; host or cells: EL4 mouse lymphoma cells
T3 sequence (Q02242 25-288): T2 sequence (Q02242 25-288)
Procedure: To determine whether anti-PD1-scFv expressed in E. coli binds to surface PD1 on mouse EL4 cells, flow cytometric analysis was performed using EL4 cells. EL4 are a mouse lymphoma cell line which expresses PD1 on its cell surface.
EL4 cells were grown in Dulbecco's Modified Eagle's Medium (DMEM) with 10% FBS. Cells were spun down, supernatant was aspirated, pellet was resuspended in 1 ml D-PBS, transferred into chilled assay tubes (1×10^6 cells), and washed 2-3 times in D-PBS with 0.5% BSA. Cells were resuspended in PBS with 0.5% BSA, to which the purified scFv-V5 and anti-V5-FITC antibody were added and incubated for 1 hour at room temperature. Negative control left out scFv-V5. Cells were resuspended in 0.5 ml PBS and analyzed on a flow cytometer.
EL4 are a mouse lymphoma cell line which expresses PD1 on its cell surface.
EL4 cells were grown in Dulbecco's Modified Eagle's Medium (DMEM) with 10% FBS and 1% Penicillin-Streptomycin Cells were spun down, supernatant was aspirated, pellet was resuspended in 1 ml D-PBS, transferred into chilled assay tubes (1×10^6 cells), and washed 3 times in D-PBS. Cells were resuspended in D-PBS with 0.5% BSA, to which the purified scFv-V5 and anti-V5-FITC antibody were added and incubated for 1 hour at room temperature. Negative control left out secreted J43-scFv-V5. Cells were then resuspended in 0.5 ml PBS and analyzed on a flow cytometer. Results are shown in (FIG. 20).

[6] = ELISA binding assay of bacterial extracts (J43-scFv), control coatings; conditions: α-V5-HRP
Procedure: as §1, §2

[7] = target: T4, mPD1 on the surface of EL4 cells (Mus musculus, UniProt Q02242); assay: PDL1 competition assay on EL4 cells (flow cytometry); assay type: cell-based; conditions: PDL1 0, 5, 10 and 30 μg/mL
T4 construct: EL4 are a mouse lymphoma cell line which expresses PD1 on its cell surface; endogenous in cells; host or cells: EL4 mouse lymphoma cells
T4 sequence (Q02242 25-288): T2 sequence (Q02242 25-288)
Procedure: Next, a competition assay was conducted to determine whether PDL1 could inhibit the binding of the anti-PD1-scFv secreted by the genetically engineered bacteria from binding to murine PD1. EL4 cells were grown and flow cytometry protocol was conducted essentially as described above except that PDL1 was added at various concentrations (0, 5, 10, and 30 μg/mL) during the incubation of the secreted anti-PD1-scFv-V5. Rat-IgG was used as a negative control of secreted scFv.

[8] = target: T5, CD47 on mouse CT26 cells (Mus musculus, UniProt Q61735); assay: flow cytometric analysis of CD47 expressing CT26 cells incubated with strain supernatants; assay type: binding
T5 construct: CT26 is a mouse colon carcinoma cell line which expresses CD47 on its cell surface; endogenous in cells; host or cells: CT26 mouse colon carcinoma cells
T5 sequence (Q61735 19-303): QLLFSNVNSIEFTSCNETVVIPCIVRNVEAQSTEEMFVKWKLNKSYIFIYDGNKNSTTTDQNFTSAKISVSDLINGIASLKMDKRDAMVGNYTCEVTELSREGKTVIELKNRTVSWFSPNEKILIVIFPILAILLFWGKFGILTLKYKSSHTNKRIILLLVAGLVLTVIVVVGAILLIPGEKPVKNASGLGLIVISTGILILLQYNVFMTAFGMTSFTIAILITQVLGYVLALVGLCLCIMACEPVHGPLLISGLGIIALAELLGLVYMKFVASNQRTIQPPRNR
Text: FIG. 29 depicts a diagram of a flow cytometric analysis of CT26 cells.
FIG. 30 depicts a diagram of a flow cytometric analysis of CT26 cells.

[9] = target: T6, mCD47 (Mus musculus, UniProt Q61735); assay: SIRPα/CD47 ELISA binding assay of supernatants; conditions: supernatant
T6 sequence (Q61735 19-303): T5 sequence (Q61735 19-303)

[10] = SIRPα/CD47 ELISA binding assay, control coatings; conditions: supernatant
[11] = target: T7, murine CD47 on CT26 cells (Mus musculus, UniProt Q61735); assay: Competition assay on CT26 cells (flow cytometry); assay type: cell-based; conditions: secreted FD6x2sirpα or FD6sirpαhIgG4
T7 construct: CT26 is a mouse colon carcinoma cell line which expresses CD47 on its cell surface; endogenous in cells; host or cells: CT26 mouse colon carcinoma cells
T7 sequence (Q61735 19-303): T5 sequence (Q61735 19-303)
Procedure: Next, a competition assay was conducted to determine whether the murine SIRPα secreted by the genetically engineered bacteria could compete with the binding of a recombinant mSIRPα or an anti-CD47 antibody to murine CD47 on CT26 cells. CT26 cells were grown and flow cytometry protocol was conducted essentially as described above except that recombinant SIRPα (Rndsystems) or an anti-CD47 antibody (Biolegend) was added during the incubation of the secreted FD6×2sirpα or FD6sirpαhIgG4. FIG. 29 and FIG. 30 show the results of the competition with recombinant SIRPalpha and anti-CD47 antibody, respectively.

[12] = tested on: anti-mSIRPα antibody; assay: SIRPα/CD47 ELISA binding assay, detection by antibody; conditions: supernatant

B1: Secreted CD40-L1: extracellular portion of murine CD40L secreted by SYN3366, in clarified supernatant (protein)
chain: HRRLDKVEEEVNLHEDFVFIKKLKRCNKGEGSLSLLNCEEMRRQFEDLVKDITLNKEEKKENSFEMQRGDEDPQIAAHVVSEANSNAASVLQWAKKGYYTMKSNLVMLENGKQLTVKREGLYYVYTQVTFCSNREPSSQRPFIVGLWLKPSSGSERILLKAANTHSSSQLCEQQSVHLGGVFELQAGASVFVNVTEASQVIHRVGFSSFGLLKL
modifications: left off: small tags and cut ends
notes: extracellular portion of murine CD40L secreted by SYN3366, in clarified supernatant
ELISA signal, coating mCD40 [1]: 0.231 | ELISA signal, coating Anti-mCD40L [2]: 0.394 | ELISA signal, coating IgG [3]: 0.052 | ELISA signal, coating PBS [3]: 0.049

B2: J43-scFv-V5: single-chain variable fragment based on J43 monoclonal antibody against mouse PD-1, V5 and HIS tagged, expressed in E. coli (protein)
scFv: MQLEVRLLESGGGLVKPEGSLKLSCVASGFTFSDYFMSWVRQAPGKGLEWVAHIYTKSYNYATYYSGSVKGRFTISRDDSRSMVYLQMNNLRTEDTATYYCTRDGSGYPSLDFWGQGTQVTVSSGGGGSGGGGSGGGGSYELTQPPSASVNVGETVKITCSGDQLPKYFADWFHQRSDQTILQVIYDDNKRPSGIPERISGSSSGTTATLTIRDVRAEDEGDYYCFSGYVDSDSKLYVFGSGTQLTVLGKGELNSKLEGKPIPNPLLGLDSTRTGHHHHHH
ELISA signal at 450 nm, mPD1 coating ([4]; bacterial extract (1/2)): 0.90 | ELISA signal at 450 nm, mPD1 coating ([4]; bacterial extract): 1.41 | Binding to EL4 cells ([5]; purified scFv with anti-V5-FITC, two batches): population shift | Staining of EL4 cells ([5]; secreted scFv 0, 2, 5 and 15 μL): dose-dependent staining | Binding to EL4 cells ([5]; secreted scFv with anti-V5-FITC): population shift | ELISA signal at 450 nm, IgG coating ([6]; bacterial extract (1/2)): 0.11 | ELISA signal at 450 nm, PBS coating ([6]; bacterial extract (1/2)): 0.10 | ELISA signal at 450 nm, IgG coating ([6]; bacterial extract): 0.13 | ELISA signal at 450 nm, PBS coating ([6]; bacterial extract): 0.11 | Competition of PDL1 against binding of secreted scFv [7]: competed in a dose dependent manner

B3: murine SIRPalpha: tet-inducible murine SIRPalpha secreted from an E. coli Nissle strain (protein, UniProt P97797 32-513, looked up)
Tyrosine-protein phosphatase …: KELKVTQPEKSVSVAAGDSTVLNCTLTSLLPVGPIRWYRGVGPSRLLIYSFAGEYVPRIRNVSDTTKRNNMDFSIRISNVTPADAGIYYCVKFQKGSSEPDTEIQSGGGTEVYVLAKPSPPEVSGPADRGIPDQKVNFTCKSHGFSPRNITLKWFKDGQELHPLETTVNPSGKNVSYNISSTVRVVLNSMDVNSKVICEVAHITLDRSPLRGIANLSNFIRVSPTVKVTQQSPTSMNQVNLTCRAERFYPEDLQLIWLENGNVSRNDTPKNLTKNTDGTYNYTSLFLVNSSAHREDVVFTCQVKHDQQPAITRNHTVLGFAHSSDQGSMQTFPDNNATHNWNVFIGVGVACALLVVLLMAALYLLRIKQKKAKGSTSSTRLHEPEKNAREITQVQSLIQDTNDINDITYADLNLPKEKKPAPRAPEPNNHTEYASIETGKVPRPEDTLTYADLDMVHLSRAQPAPKPEPSFSEYASVQVQRK
competition of binding to CD47 on CT26 cells by recombinant SIRPalpha ([8]; FIG. 29): recombinant SIRPalpha can compete with the binding | competition of binding to CD47 on CT26 cells by anti-CD47 antibody ([8]; FIG. 30): the antibody can compete with the binding

B4: Secreted anti-mCD47 scFv: anti-mCD47 scFv secreted by engineered Nissle (SYN3161), in supernatant (protein)
scFv: QVKLLQSGAALVKPGASVKMSCQASGYSFTDYWVTWVKQSHGQSLEWIGEIYPSNTVTNFNDNFKGKATLTVDKSTSTAYMELSRLTSEDSAIYYCTRIGNSGYRVGWFIYWGQGTLVTVLSGGGGSGGGGSGGGGSDTVLTQSPALAVSPGERVTISCKASESVSSHMHWYQQKPGQQPKLLIYKASNLASGVPARFSGSGSGTDFTLTIDPVEADDTATYFCQQGWNGPFTFGAGTRLELKRADAAGSGELGGSGKPIPNPLLGLDSTGSGHHHHHH
ELISA signal, coating mCD47 [9]: 0.527 | ELISA signal, coating IgG [10]: 0.067 | ELISA signal, coating PBS [10]: 0.053

B5: recombinant SIRPalpha: recombinant SIRPα (Rndsystems) (protein)
chain: KELKVTQPEKSVSVAAGDSTVLNCTLTSLLPVGPIRWYRGVGPSRLLIYSFAGEYVPRIRNVSDTTKRNNMDFSIRISNVTPADAGIYYCVKFQKGSSEPDTEIQSGGGTEVYVLAKPSPPEVSGPADRGIPDQKVNFTCKSHGFSPRNITLKWFKDGQELHPLETTVNPSGKNVSYNISSTVRVVLNSMDVNSKVICEVAHITLDRSPLRGIANLSNFIRVSPTVKVTQQSPTSMNQVNLTCRAERFYPEDLQLIWLENGNVSRNDTPKNLTKNTDGTYNYTSLFLVNSSAHREDVVFTCQVKHDQQPAITRNHTVLGFAHSSDQGSMQTFPDNNATHNWN
Competition with secreted SIRPalpha for binding to CD47 on CT26 cells [11]: able to compete

B6: Secreted WT mSIRPα: wild type murine SIRPα secreted by engineered Nissle (SYN2996), in supernatant (protein)
chain: B5 chain
modifications: left off: small tags and cut ends
ELISA signal, coating mCD47 [9]: 1.069 | ELISA signal, coating IgG [10]: 0.056 | ELISA signal, coating PBS [10]: 0.059 | ELISA signal, coating Anti-mSIRPα [12]: 0.829

B7: Secreted CD40-L2: soluble form of murine CD40L secreted by SYN3367, in clarified supernatant (protein)
chain: MQRGDEDPQIAAHVVSEANSNAASVLQWAKKGYYTMKSNLVMLENGKQLTVKREGLYYVYTQVTFCSNREPSSQRPFIVGLWLKPSSGSERILLKAANTHSSSQLCEQQSVHLGGVFELQAGASVFVNVTEASQVIHRVGFSSFGLLKL
modifications: left off: small tags and cut ends
ELISA signal, coating mCD40 [1]: 0.639 | ELISA signal, coating Anti-mCD40L [2]: 0.825 | ELISA signal, coating IgG [3]: 0.052 | ELISA signal, coating PBS [3]: 0.05
